Measured values: US9766250B2, “Method for detecting protein-protein interaction” (MEDICAL & BIOLOGICAL LABORATORIES CO., LTD., priority 2011, dated 2017)

B1: monomeric Kikume Green-Red1 (protein)
chain: MVSVITSEMKIELRMEGSVNGHKFVITGKGSGRPYEGTQTVDLTVIEGGPLPFAFDILTTAFHYGNRVFVEYPEEIVDYFKQSFPEGYSWERSMSYEDGGICLATNNITMKKDGSNTFVNEIRFDGTNFPANGPVMQRKTVKWEPSTEKMYVRDGVLKGDVEMALLLEGGGHYRCDFRTTYKAKKVVQLPDYHYVDHQMEITSHDKDYNKVKAYEHAKAYSGTYRGAKYEFEA
modifications: Synthetic sequence mKikGR1
B2: DsRed2: fluorescent protein capable of homotetramerization, SEQ ID NO: 153 (protein)
chain: MASSENVITEFMRFKVRMEGTVNGHEFEIEGEGEGRPYEGHNTVKLKVTKGGPLPFAWDILSPQFQYGSKVYVKHPADIPDYKKLSFPEGFKWERVMNFEDGGVATVTQDSSLQDGCFIYKVKFIGVNFPSDGPVMQKKTMGWEASTERLYPRDGVLKGETHKALKLKDGGHYLVEFKSIYMAKKPVQLPGYYYVDAKLDITSHNEDYTIVEQYERTEGRHHLFL
modifications: Synthetic sequence DsRed2

Legend:
[1] = target: T1, mTOR(FRB) and FKBP12 interaction (Homo sapiens, UniProt P42345+P62942); assay: Degree of fluorescent focus (assembly) formation after rapamycin with TFG(PB1) (Example 9, Table 2); assay type: cell-based; conditions: fluorescent protein fused to mTOR(FRB), KO1 and dAG (AB) in 293T cells
T1 construct: region having the 2025th to 2114th amino acids of the mTOR protein; expressed in transfected cells; host or cells: HeLaS3; 293T for some combinations with FKBP12-Tankyrase(SAM)
T1 sequence (P42345 2025-2114): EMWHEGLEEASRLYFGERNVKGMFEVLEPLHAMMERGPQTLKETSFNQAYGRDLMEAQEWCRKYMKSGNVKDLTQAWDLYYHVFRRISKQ
T1 sequence (P62942 whole entry, the tested form may be a part): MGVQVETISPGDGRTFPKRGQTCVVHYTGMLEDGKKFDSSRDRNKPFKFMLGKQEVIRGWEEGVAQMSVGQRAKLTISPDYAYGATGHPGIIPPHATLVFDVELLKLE

[2] = target: T1, mTOR(FRB) and FKBP12 interaction; assay: Degree of fluorescent focus (assembly) formation after rapamycin, fluorescent proteins fused to mTOR(FRB) (Example 8, Table 1); assay type: cell-based; conditions: fluorescent protein fused to mTOR(FRB); for degree of fluorescent focus formation, DGKd (SAM): with FKBP12-DGKd(SAM); for degree of fluorescent focus formation, TEL (SAM): with FKBP12-TEL(SAM); for degree of fluorescent focus formation, Tankyrase (SAM): with FKBP12-Tankyrase(SAM), some combinations in 293T cells; for degree of fluorescent focus formation, P62 (PB1): with p62(PB1)-FKBP12
Protocol: Note that plasmid DNAs encoding fusion proteins composed of mTOR(FRB) and the corresponding fluorescent proteins were prepared as appropriate by the same method as that described in Example 2. Moreover, regarding the combinations of FKBP12-Tankyrase(SAM) with mKO2, mKeima, mMiCy1, mKO1, MiCy1, and TGuv, the test was conducted by introducing the genes into 293T cells. Specifically, the 293T cells were cultured in DMEM High glucose (manufactured by SIGMA ALDRICH CO.) containing 10% FBS (manufactured by Equitech-Bio Inc.). Moreover, the 293T cells were seeded onto an 8-well chamber (manufactured by Nunc A/S) 6 hours before the plasmid DNAs were introduced. Further, at the time of the transfection, 200 ng of the plasmid DNA encoding FKBP12-Tankyrase(SAM) and 200 ng of one of the plasmid DNAs encoding fusion proteins composed of the fluorescent proteins and mTOR(FRB) were diluted with 30 μl of OptiMEM (manufactured by Life Technologies Corporation), and 1.2 μl of TurboFect Transfection Reagent (manufactured by Thermo Fisher Scientific Inc.) was added thereto and stirred. Then, the resultant was further mixed with 300 μl of the culture solution, subsequently added to the 293T cells, and observed 48 hours later.

Molecule	degree of fluorescent focus formation, TFG (PB1) [1]	degree of fluorescent focus formation, DGKd (SAM) [2]	degree of fluorescent focus formation, TEL (SAM) [2]	degree of fluorescent focus formation, Tankyrase (SAM) [2]	degree of fluorescent focus formation, P62 (PB1) [2]
B1	++ (fluorescent foci were observed in 50% or less of the HeLaS3 cells)	+++ (fluorescent foci were observed in 50% or more of the HeLaS3 cells)	+++ (fluorescent foci were observed in 50% or more of the HeLaS3 cells)	+++ (fluorescent foci were observed in 50% or more of the HeLaS3 cells)	+++ (fluorescent foci were observed in 50% or more of the HeLaS3 cells)
B2	++ (fluorescent foci were observed in 50% or less of the HeLaS3 cells)	+++ (fluorescent foci were observed in 50% or more of the HeLaS3 cells)	+++ (fluorescent foci were observed in 50% or more of the HeLaS3 cells)	+++ (fluorescent foci were observed in 50% or more of the HeLaS3 cells)	+++ (fluorescent foci were observed in 50% or more of the HeLaS3 cells)
